These results are taken from article PMC10528910.

For the assay, the target named is syntrophin PDZ domain (UniProt Q61234).

With “VKESLV ligand (syntrophin PDZ ligand) (peptide)”, the Kd is 1970 nM. In other words, the single-digit micromolar range.

As usually defined, the Kd is a measure of binding affinity in units of concentration. A low value points to tighter binding.
